Measurements taken from patent US20100189695A1, “IRAK-1 AS REGULATOR OF DISEASES AND DISORDERS” (priority 2008, published 2010).

Target: NFAT (in Hela cells) (human)
Assay: cell-based or functional assay

Substance: Flag tagged full length wild type human IRAK-1 (pFlag-IRAK-1)
- NFAT-luciferase reporter activity in Hela cells: 80 % reduction
